We go through nine substances from publication PMC4794775.

Bounds are passed on as bounds.

For assay [1], the target named is RopB C-terminal domain (RopB-CTD, amino acids 56-280), wild type (Streptococcus pyogenes (group A Streptococcus) strain MGAS10870). Briefly: SEC. For orientation: SEC sorts molecules by how far they enter the pores of the column.
Assay [2] has as its target RopB-CTD C222A (Streptococcus pyogenes (group A Streptococcus) strain MGAS10870). The experiment in a line: SEC.
Assay [3] concerns the target RopB-CTD C227Y (Streptococcus pyogenes (group A Streptococcus) strain MGAS10870). Briefly: SEC.
Assay [4] addresses RopB-CTD I255A (Streptococcus pyogenes (group A Streptococcus) strain MGAS10870). Briefly: SEC.
Assay [5] concerns the target RopB-CTD R226A (Streptococcus pyogenes (group A Streptococcus) strain MGAS10870). Briefly: SEC.
Assay [6] has as its target RopB-CTD R226Q (Streptococcus pyogenes (group A Streptococcus) strain MGAS10870). The experiment in a line: SEC.
The target in assay [7] is RopB-CTD Y224A (Streptococcus pyogenes (group A Streptococcus) strain MGAS10870). The experiment in a line: SEC.
The target in assay [8] is RopB-CTD Y224H (Streptococcus pyogenes (group A Streptococcus) strain MGAS10870). The experiment in a line: SEC.
In assay [9] the target is full-length RopB (Streptococcus pyogenes (group A Streptococcus) strain MGAS10870).

“RopB C-terminal domain (RopB-CTD, amino acids 56-280), wild type (domain or fragment)” had a stoichiometry N in [1] of 2.
RopB-CTD C222A (domain or fragment) yielded a stoichiometry N in [2] of 2.
The substance RopB-CTD C227Y (domain or fragment) showed a stoichiometry N in assay [3] of 2.
As for RopB-CTD I255A (domain or fragment), in assay [4], the stoichiometry N came out at 2.
In the case of RopB-CTD R226A (domain or fragment), the stoichiometry N in [5] was found to be 2.
As for RopB-CTD R226Q (domain or fragment), in assay [6], the stoichiometry N stood at 2.
The substance RopB-CTD Y224A (domain or fragment) came in with a stoichiometry N in assay [7] of 2.
Consider RopB-CTD Y224H (domain or fragment), for which the stoichiometry N in assay [8] is 2.
full-length RopB (natural protein) returned a stoichiometry N in assay [9] of more than 6.

Usually stoichiometry N stands for the number of molecules, sites or subunits per partner or assembly.
